The subject of the series is Saccharomyces cerevisiae. The experiment in a line: protein stability index of tFT-peptide fusion (C-terminal peptide) (PSI (0-1 scale)); higher = more stable (slower turnover). The following applies: temperature: 30 C. As for the experimental part: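 MPS profiling in S. cerevisiae of the yeast C-terminome library: the last 12 aa of each annotated ORF are fused to the C-terminus of a sfGFP-mCherry timer, after a GGGS linker. Cells are FACS-sorted into 8 mCherry/sfGFP bins and deep-sequenced. PSI runs from 0 (unstable) to 1 (stable); wild type and das1Δ backgrounds, two technical replicates each.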

The mark [1] stands for this setting: genetic background: das1 deletion.

Our source for the protein stability index values is the supplement of paper PMC10724198.

± gives the standard deviation of the averaged measurements.

Turning to LNELGEFKVINS [NPR2 C-terminal 12 aa], the protein stability index runs as follows: under setting [1], 0.689 ± 0.014; (genetic background: wild type) 0.6914 ± 0.0059.
LNKKREKKDETE [CSM1 C-terminal 12 aa]: the protein stability index under setting [1] amounted to 0.707 ± 0.038 and the protein stability index (genetic background: wild type) is 0.718 ± 0.055.
For LNNIKTIIEGPE [XYL2 C-terminal 12 aa], in that order: 0.676 ± 0.058 and 0.716 ± 0.054.
LPAEILSNEPLK [YML119W C-terminal 12 aa]: the protein stability index by setting is: under setting [1], 0.688 ± 0.01; (genetic background: wild type) 0.692 ± 0.071.
For LPEPNFFRKAAF [AXL1 C-terminal 12 aa], in that order: 0.7202 ± 0.0035 and 0.7 ± 0.015.
For LPFGCVDDVNRQ [MSK1 C-terminal 12 aa], the protein stability index by setting is: under setting [1], 0.706 ± 0.05; (genetic background: wild type) 0.719 ± 0.021.
For LPKIIKKHQRLS [MRH4 C-terminal 12 aa], in that order: 0.724 ± 0.056 and 0.191 ± 0.0044.
For LPPGRVFSRVRR [MRPL35 C-terminal 12 aa], the protein stability index under setting [1] was determined as 0.683 ± 0.022 and the protein stability index (genetic background: wild type) is 0.666 ± 0.012.
For LPRDSAMSAPDI [YMR085W C-terminal 12 aa], in that order: 0.7049 ± 0.001 and 0.7081 ± 0.0025.
On to LQMVKNAKDLST [CYR1 C-terminal 12 aa], for which the protein stability index is, setting by setting: under setting [1], 0.6866 ± 0.0026; (genetic background: wild type) 0.694 ± 0.016.
For LQSDKDLQSLLT [CUE1 C-terminal 12 aa], in that order: 0.698 ± 0.0011 and 0.683 ± 0.011.
For LRSKVKNHAQRH [YLR428C C-terminal 12 aa], in that order: 0.714 ± 0.018 and 0.693 ± 0.021.
LRTVASRLKERY [PNO1 C-terminal 12 aa]: the protein stability index was 0.698 ± 0.013 under setting [1] and 0.706 ± 0.056 (genetic background: wild type).
For LSEEALSTCCCS [YJL118W C-terminal 12 aa], in that order: 0.7528 ± 0.0039 and 0.738 ± 0.047.
For LSFADYRKKLLK [SET3 C-terminal 12 aa], in that order: 0.70897 ± 0.00015 and 0.689 ± 0.016.
For “LTVTRWKLQITG [YPR160W-A C-terminal 12 aa]”, in that order: 0.659 ± 0.013 and 0.4486 ± 0.0032.
On to LVSMTILVSGLI [SHE9 C-terminal 12 aa], for which the protein stability index runs as follows: under setting [1], 0.246 ± 0.025; (genetic background: wild type) 0.262 ± 0.02.
Regarding LWDNKPVEKKRQ [SHH4 C-terminal 12 aa], the protein stability index turned out to be 0.712 ± 0.023 under setting [1] and 0.72 ± 0.027 (genetic background: wild type).
On to LYEEHQQMLDKQ [IPI3 C-terminal 12 aa], for which the protein stability index runs as follows: under setting [1], 0.7227 ± 0.0019; (genetic background: wild type) 0.726 ± 0.088.
For “LYSLPISVPCTS [YDL086C-A C-terminal 12 aa]”, in that order: 0.292 ± 0.013 and 0.313 ± 0.018.
For MALLAMVMGVDM [URA2 C-terminal 12 aa], in that order: 0.6024 ± 0.0046 and 0.676 ± 0.13.
Turning to MDTLEEMFTEEP [PRP42 C-terminal 12 aa], the protein stability index is, setting by setting: under setting [1], 0.726 ± 0.027; (genetic background: wild type) 0.7107 ± 0.0067.
For MIVRFFKKVTFR [CHS1 C-terminal 12 aa], in that order: 0.7384 ± 0.0049 and 0.705 ± 0.008.
For MIWKWLIEDKKN [MRS2 C-terminal 12 aa], in that order: 0.72 ± 0.011 and 0.69 ± 0.052.
For MKDFSKNEQKEK [SEY1 C-terminal 12 aa], in that order: 0.719 ± 0.037 and 0.72 ± 0.043.
As to MKHTKKLQLDKV [PKP2 C-terminal 12 aa], the protein stability index came out at 0.69 ± 0.007 under setting [1] and 0.696 ± 0.024 (genetic background: wild type).
For MNEIDARIFEYK [SPO11 C-terminal 12 aa], in that order: 0.764 ± 0.024 and 0.681 ± 0.013.
Regarding MQLARRIRGQFI [CSE4 C-terminal 12 aa], the protein stability index by setting is: under setting [1], 0.691 ± 0.0093; (genetic background: wild type) 0.646 ± 0.02.
For MRIRSDMSMMRW [COR1 C-terminal 12 aa], in that order: 0.71 ± 0.0094 and 0.7133 ± 0.0025.
On to MRNNNDTTFKSF [YNL013C C-terminal 12 aa], for which the protein stability index reads like this: under setting [1], 0.685 ± 0.015; (genetic background: wild type) 0.698 ± 0.02.
For MSLMRKAYHFWC [BAP2 C-terminal 12 aa], in that order: 0.726 ± 0.024 and 0.619 ± 0.039.
For MTMILSRMSCSA [IRA2 C-terminal 12 aa], in that order: 0.622 ± 0.014 and 0.609 ± 0.015.
For MVEAAALKRNKK [ARO10 C-terminal 12 aa], in that order: 0.686 ± 0.049 and 0.7161 ± 0.0026.
Consider MVYKPEDSLLKI [MTR2 C-terminal 12 aa], for which the protein stability index is, setting by setting: under setting [1], 0.684 ± 0.039; (genetic background: wild type) 0.67 ± 0.014.
For MYCASFQLPANV [TRM5 C-terminal 12 aa], in that order: 0.673 ± 0.015 and 0.6578 ± 0.0027.
For NDEEKQALAEKA [YLR297W C-terminal 12 aa], in that order: 0.683 ± 0.011 and 0.6834 ± 0.0067.
Regarding NDGTSANSACSC [VPS21 C-terminal 12 aa], the protein stability index came to 0.715 ± 0.012 under setting [1] and 0.691 ± 0.045 (genetic background: wild type).
For NDITLAVYTSAQ [EGO2 C-terminal 12 aa], in that order: 0.6895 ± 0.00082 and 0.651 ± 0.021.
For the sequence NEDLGLSDIKVE [ZPR1 C-terminal 12 aa], the protein stability index worked out at 0.694 ± 0.0078 under setting [1] and 0.68742 ± 0.00015 (genetic background: wild type).
With NEQEINKIFEPE [HXT14 C-terminal 12 aa], the protein stability index stood at 0.694 ± 0.01 under setting [1] and 0.743 ± 0.052 (genetic background: wild type).
With NEQVKKFFLNNV [NAS6 C-terminal 12 aa], the protein stability index was 0.701 ± 0.029 under setting [1] and 0.714 ± 0.01 (genetic background: wild type).
For NGLNWEVIEYHA [HRI1 C-terminal 12 aa], in that order: 0.724 ± 0.008 and 0.713 ± 0.042.
For NGNNAESGETKQ [SSC1 C-terminal 12 aa], in that order: 0.6813 ± 0.0068 and 0.6673 ± 0.0059.
For NKAPSWLLTALE [OCA1 C-terminal 12 aa], in that order: 0.6834 ± 0.0031 and 0.69 ± 0.027.
Consider NKKRLSVDYILT [USV1 C-terminal 12 aa], for which the protein stability index came out at 0.689 ± 0.05 under setting [1] and 0.679 ± 0.022 (genetic background: wild type).
In the case of NKNKNKVTKGRR [RAD27 C-terminal 12 aa], the protein stability index reads like this: under setting [1], 0.668 ± 0.024; (genetic background: wild type) 0.672 ± 0.026.
As for NKVDINMEQEKF [UGO1 C-terminal 12 aa], the protein stability index reads like this: under setting [1], 0.699 ± 0.043; (genetic background: wild type) 0.651 ± 0.027.
For NLANDEQPLHNL [MDM30 C-terminal 12 aa], in that order: 0.699 ± 0.02 and 0.659 ± 0.03.
Take NLGYSKDQVFKF [MCR1 C-terminal 12 aa]: the protein stability index was 0.708 ± 0.0082 under setting [1] and 0.688 ± 0.039 (genetic background: wild type).
For NMIIDTLGGNEK [COQ6 C-terminal 12 aa], in that order: 0.735 ± 0.019 and 0.692 ± 0.013.
Take NNLNTNTSTTTQ [MIT1 C-terminal 12 aa]: the protein stability index is, setting by setting: under setting [1], 0.682 ± 0.011; (genetic background: wild type) 0.68 ± 0.065.
For NNLQSFYFDNSN [BCK2 C-terminal 12 aa], in that order: 0.689 ± 0.018 and 0.706 ± 0.03.
For NNNIANDYMDID [YML053C C-terminal 12 aa], in that order: 0.7268 ± 0.005 and 0.815 ± 0.067.
For “NNRYKNFSPKRL [YHR071C-A C-terminal 12 aa]”, the protein stability index turned out to be 0.746 ± 0.011 under setting [1] and 0.683 ± 0.034 (genetic background: wild type).
With NPTIGRDSKKAV [PEX30 C-terminal 12 aa], the protein stability index was found to be 0.694 ± 0.011 under setting [1] and 0.702 ± 0.015 (genetic background: wild type).
For “NPWKSQIRDWKN [YBL100W-C C-terminal 12 aa]”, in that order: 0.704 ± 0.018 and 0.77 ± 0.031.
For NRLKGQNSHQQR [RGS2 C-terminal 12 aa], in that order: 0.7072 ± 0.0026 and 0.726 ± 0.035.
In the case of NRRSDKNLPDAT [STE12 C-terminal 12 aa], the protein stability index reads like this: under setting [1], 0.7085 ± 0.002; (genetic background: wild type) 0.694 ± 0.0077.
As to NSEKDQVPILSS [SSK22 C-terminal 12 aa], the protein stability index stood at 0.702 ± 0.011 under setting [1] and 0.729 ± 0.041 (genetic background: wild type).
For NSTSSKDKKKKN [SES1 C-terminal 12 aa], in that order: 0.707 ± 0.008 and 0.7314 ± 0.0025.
For NTAKATYDLYTN [GPI8 C-terminal 12 aa], in that order: 0.686 ± 0.012 and 0.6703 ± 0.0046.
With NTQVDDETKKNN [YDC1 C-terminal 12 aa], the protein stability index stood at 0.7078 ± 0.0056 under setting [1] and 0.7367 ± 0.0051 (genetic background: wild type).
For NVDVVTPNSIFI [TMA17 C-terminal 12 aa], in that order: 0.67 ± 0.036 and 0.6982 ± 0.0046.
For NVKVKALQRMTW [TIS11 C-terminal 12 aa], the protein stability index is, setting by setting: under setting [1], 0.6967 ± 0.0018; (genetic background: wild type) 0.729 ± 0.039.
As for NVPSFGQDELDQ [MPS3 C-terminal 12 aa], the protein stability index by setting is: under setting [1], 0.699 ± 0.016; (genetic background: wild type) 0.688 ± 0.011.
For NVTGSANNGTHI [SVS1 C-terminal 12 aa], in that order: 0.708 ± 0.032 and 0.671 ± 0.016.
For NYDLQKLYDKID [QDR3 C-terminal 12 aa], in that order: 0.705 ± 0.037 and 0.6544 ± 0.0034.
